The values that follow come from publication PMC2396426 (Nucleic Acids Research, 2008).

The target of the experiment is T1, yeast general transcription factor TFIIB (yeast, UniProt P29055 1-345).
T1 sequence (looked up): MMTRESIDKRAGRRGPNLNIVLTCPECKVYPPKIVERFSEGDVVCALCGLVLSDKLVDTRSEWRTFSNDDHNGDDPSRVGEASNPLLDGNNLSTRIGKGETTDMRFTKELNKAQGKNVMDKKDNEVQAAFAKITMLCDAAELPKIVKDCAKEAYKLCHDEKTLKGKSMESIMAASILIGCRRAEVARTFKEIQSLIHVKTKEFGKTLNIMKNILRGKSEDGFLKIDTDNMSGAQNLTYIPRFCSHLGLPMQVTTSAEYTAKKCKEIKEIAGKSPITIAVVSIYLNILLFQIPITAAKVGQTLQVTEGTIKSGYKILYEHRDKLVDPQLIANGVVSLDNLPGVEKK
The experiment can be described thus: native gel or EMSA. On the technique in general: In EMSA bound probe runs differently from free probe, usually more slowly.

B1: yeast TATA-binding protein (TBP) (natural protein, UniProt P13393 1-240, looked up)
chain: MADEERLKEFKEANKIVFDPNTRQVWENQNRDGTKPATTFQSEEDIKRAAPESEKDTSATSGIVPTLQNIVATVTLGCRLDLKTVALHARNAEYNPKRFAAVIMRIREPKTTALIFASGKMVVTGAKSEDDSKLASRKYARIIQKIGFAAKFTDFKIQNIVGSCDVKFPIRLEGLAFSHGTFSSYEPELFPGLIYRMVKPKIVLLIFVSGKIVLTGAKQREEIYQAFEAIYPVLSEFRKM
B1: the binding result is on record as “binds”.
